Tested on: yeast gat1 mutant
Test: Lipidomic analysis of phospholipids from yeast gat1 transformed with TpGPAT or GAT1, fed EPA or DHA
Type: cell-based, Saccharomyces cerevisiae
Conditions: tandem mass spectrometer lipidomics
From the text: FIG. 4 graphically depicts the results of the lipidomic analysis (fatty acid composition) of the lipids from yeast gat1 mutants transformed with either TpGPAT1 or GAT1. Yeast cells expressing TpGPAT or yeast GAT1 were fed with EPA (20:5) or DHA (22:6) upon induction of the genes. Total lipids from the yeast cells were extracted and subjected to lipidomic analysis using a tandem mass spectrometer. The results are presented as the molar ratio of EPA- or DHA-containing phospholipids (PC, PE, PS, PI) in the total phospholipids.
To further determine the role of TpGPAT in the incorporation of VLGPUFAs into glycerolipids, yeast gat1 strain transformed with TpGPAT or GAT1 under the control of the GAL1 promoter was grown in the presence of EPA (20:5) or DHA (22:6) upon induction of the genes. Phospholipids were extracted and subjected to lipidomic analysis using a tandem mass spectrometer (testing conducted by the Kansas Lipidomics Research Center). […] It was thus concluded that TpGPAT has a role in controlling PUFA accumulation in glycerolipid.

B1: GAT1: yeast (S. cerevisiae) glycerol-3-phosphate acyltransferase gene GAT1 expressed under GAL1 promoter as comparator (protein, listed as Saccharomyces cerevisiae)
chain: MSAPAADHNAAKPIPHVPQASRRYKNSYNGFVYNIHTWLYDVSVFLFNILFTIFFREIKVRGAYNVPEVGVPTILVCAPHANQFIDPALVMSQTRLLKTSAGKSRSRMPCFVTAESSFKKRFISFFGHAMGGIPVPRIQDNLKPVDENLEIYAPDLKNHPEIIKGRSKNPQTTPVNFTKRFSAKSLLGLPDYLSNAQIKEIPDDETIILSSPFRTSKSKVVELLTNGTNFKYAEKIDNTETFQSVFDHLHTKGCVGIFPEGGSHDRPSLLPIKAGVAIMALGAVAADPTMKVAVVPCGLHYFHRNKFRSRAVLEYGEPIVVDGKYGEMYKDSPRETVSKLLKKITNSLFSVTENAPDYDTLMVIQAARRLYQPVKVRLPLPAIVEINRRLLFGYSKFKDDPRIIHLKKLVYDYNRKLDSVGLKDHQVMQLKTTKLEALRCFVTLIVRLIKFSVFAILSLPGSILFTPIFIICRVYSEKKAKEGLKKSLVKIKGTDLLATWKLIVALILAPILYVTYSILLIILARKQHYCRIWVPSNNAFIQFVYFYALLVFTTYSSLKTGEIGVDLFKSLRPLFVSIVYPGKKIEEIQTTRKNLSLELTAVCNDLGPLVFPDYDKLATEIFSKRDGYDVSSDAESSISRMSVQSRSRSSSIHSIGSLASNALSRVNSRGSLTDIPIFSDAKQGQWKSEGETSEDEDEFDEKNPAIVQTARSSDLNKENSRNTNISSKIASLVRQKREHEKKE
Molar percentage of DHA in phospholipids (yeast gat1 fed DHA (22:6)): 0.235% | Molar percentage of EPA in phospholipids (yeast gat1 fed EPA (20:5)): 2.025%

— patent US20110093983A1, “ALGAL GLYCEROL-3 PHOSPHATE ACYLTRANSFERASE” (National Research Council of Canada, priority 2008, published 2011)
